{"source": "patent EP4681731A1", "about": "(Bio-Thera Solutions, Ltd., dated 2026)", "binders": {"B1": {"name": "antibody M-KF (antibody, human IgG1, kappa, V domains shown)", "VH": "QVQLVESGGGVVQPGESLRLSCAASGFTFSSYGMHWVRQAPGKGLEWVAVIWEDGSNQYYADSVKGRFTISRDNSKNTLYLQMNSLRAEDTAVYYCAKDNQDTSPDVGIDYWGQGTLVTVSS", "VL": "DIQMTQSPSSLSASVGDRVTITCRASQNISPFLNWYQQKPGKAPKLLIYAAVGLQSGVPSRFSGSGSGTDFTLTISSLQPEDFATYYCQQYTDYPLTFGGGTKVEIKR", "notes": "Expressed in CHO-BAT-KF cells (alpha-(1,6)-fucosyltransferase knocked out); also called anti-OX40 antibody"}}, "key": {"[1]": {"target": "T1, human OX40 on PG-Jurkat-hOX40-NF-kB cells (human, UniProt P43489 29-277)", "T1 construct": "whole, on cells; Jurkat cells overexpressing human OX40 that also carry the pGL6-NFkB-luc reporter plasmid; also called TNFRSF4; ACT35", "T1 sequence (looked up)": "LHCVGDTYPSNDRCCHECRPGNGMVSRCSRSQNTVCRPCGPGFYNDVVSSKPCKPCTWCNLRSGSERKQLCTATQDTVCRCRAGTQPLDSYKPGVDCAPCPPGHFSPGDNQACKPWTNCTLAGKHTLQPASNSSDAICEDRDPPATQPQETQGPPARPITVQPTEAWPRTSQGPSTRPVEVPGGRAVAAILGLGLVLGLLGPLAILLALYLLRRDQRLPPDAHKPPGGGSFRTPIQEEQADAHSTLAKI", "test": "flow cytometry competition against OX40L-mFc on PG-Jurkat-OX40-NF-kB cells; reference antibody KHK4083"}, "[2]": {"target": "T1, human OX40 on PG-Jurkat-hOX40-NF-kB …", "test": "flow cytometry competition: antibody titrated against OX40L-mFc (1.5 ug/mL) on PG-Jurkat-OX40-NF-kB cells, anti-mFc APC detection"}, "[3]": {"target": "T1, human OX40 on PG-Jurkat-hOX40-NF-kB …", "test": "cell-based or functional assay"}}}
{"binder": "B1", "values": [{"measurement": "fold lower IC50 than antibody KHK4083", "setting": "[1]", "value": 2.8, "unit": "fold"}, {"measurement": "IC50", "setting": "[2]", "value": 0.85, "unit": "nM"}, {"measurement": "IC50 of blocking OX40L-mFc-induced NF-kB luciferase reporter signal (RLU) in PG-Jurkat-OX40-NF-kB cells", "setting": "[3]", "value": 0.095, "unit": "nM"}, {"measurement": "fold lower IC50 than antibody KHK4083 in the NF-kB luciferase reporter assay", "setting": "[3]", "value": 4.8, "unit": "fold"}]}
